Reference: the supplement of paper PMC10724198
± gives the standard deviation of the averaged measurements.

Tested on: Saccharomyces cerevisiae
Experiment: protein stability index of tFT-peptide fusion (C-terminal peptide) (PSI (0-1 scale)); higher = more stable (slower turnover)
Details: genetic background: wild type; temperature: 30 C
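Further: PSI is a weighted mean of sequencing reads over stability bins, variants kept only with over 10 reads, mCherry proximal and sfGFP distal, peptide attached via GGGS linker.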

Row | Sequence | protein stability index
1 | SGRPALSRARRG | 0.668 ± 0.015
2 | SGRYNIKPEERE | 0.634 ± 0.022
3 | SGSLFVRIGGMG | 0.754 ± 0.094
4 | SGVDVPCSCHYL | 0.732 ± 0.013
5 | SGVTISYQEGLR | 0.677 ± 0.0091
6 | SGVVIDDSLKEE | 0.683 ± 0.0092
7 | SGVVLVRCEGRR | 0.754 ± 0.15
8 | SGWVVECPRECW | 0.719 ± 0.024
9 | SHALSFSFSLLP | 0.6367 ± 0.0052
10 | SHGEDTACNWGL | 0.714 ± 0.018
11 | SHPHLSSPPSRP | 0.678 ± 0.055
12 | SHPLFLPALSPP | 0.721 ± 0.061
13 | SHQTTKQKKKNL | 0.624 ± 0.013
14 | SHSLPHLSGPPR | 0.698 ± 0.056
15 | SHTLIRRGTHFP | 0.683 ± 0.0094
16 | SHTVVFRVCTGS | 0.631 ± 0.087
17 | SHVPLPRAHSPP | 0.6702 ± 0.0034
18 | SHVVRHVSTVEK | 0.7 ± 0.023
19 | SICRERRLSFYL | 0.728 ± 0.052
20 | SIECSLCYSLFD | 0.663 ± 0.032
21 | SIERNEGRKKLG | 0.708 ± 0.064
22 | SIFPLSLLLPLP | 0.758 ± 0.05
23 | SIHITGTLSRTA | 0.751 ± 0.065

Row | Sequence | protein stability index
24 | SIIRWSKRTEES | 0.695 ± 0.049
25 | SIKKKQKIKLTK | 0.689 ± 0.02
26 | SIRPVRLSWVRL | 0.632 ± 0.0066
27 | SIRQDSLMVWGG | 0.666 ± 0.097
28 | SISANPGAPHFP | 0.666 ± 0.022
29 | SISGTSKDSASC | 0.6677 ± 0.0028
30 | SISRPSEHHLTQ | 0.673 ± 0.023
31 | SIVLRNRSGDIL | 0.63 ± 0.061
32 | SIVPIIPDSVPP | 0.676 ± 0.048
33 | SKEERRKGSKKI | 0.686 ± 0.054
34 | SKKRKKNNAKTK | 0.713 ± 0.01
35 | SKLRDFHVLVTH | 0.611 ± 0.011
36 | SLAFGPTAFLPT | 0.6818 ± 0.0038
37 | SLAGGSSAPSAS | 0.673 ± 0.013
38 | SLALSAGFSIYL | 0.6693 ± 0.0062
39 | SLASPPPLHCTL | 0.659 ± 0.034
40 | SLAVATAVLLYP | 0.666 ± 0.035
41 | SLAYPPPSPPPA | 0.68 ± 0.054
42 | SLCFSVFFPFFF | 0.5443 ± 0.0027
43 | SLCHLFYGSVEG | 0.668 ± 0.055
44 | SLEYIFSCWSLY | 0.711 ± 0.1
45 | SLFASTFFVWPS | 0.725 ± 0.014
46 | SLFPAETPPKYR | 0.656 ± 0.025

Row | Sequence | protein stability index
47 | SLFRYPLALPFP | 0.711 ± 0.012
48 | SLFSLLRSPSPF | 0.806 ± 0.18
49 | SLGRVSRLSFQH | 0.784 ± 0.041
50 | SLGSISSATLLA | 0.6117 ± 0.0026
51 | SLIACQGPIPCG | 0.648 ± 0.038
52 | SLIFVSLLGAYD | 0.623 ± 0.056
53 | SLLAGSSLPFSP | 0.696 ± 0.0074
54 | SLLAPPALTAPS | 0.674 ± 0.05
55 | SLLPPPPPPAPS | 0.627 ± 0.011
56 | SLLSRYFLLPLL | 0.545 ± 0.061
57 | SLPFSPPTRSSL | 0.758 ± 0.052
58 | SLPPPPLLPRPL | 0.686 ± 0.061
59 | SLPSPIPPPSLL | 0.739 ± 0.29
60 | SLPSSPPPSPPL | 0.7172 ± 0.0043
61 | SLRFLFPSSRFF | 0.664 ± 0.015
62 | SLRLAHSPPDEV | 0.749 ± 0.17
63 | SLRLFIHTIFSR | 0.695 ± 0.061
64 | SLRLPPPRRLPV | 0.658 ± 0.12
65 | SLRMMKTTNAWT | 0.661 ± 0.0077
66 | SLRPPLHSPSPS | 0.674 ± 0.016
67 | SLRPSELFRPLN | 0.724 ± 0.014
68 | SLRSPPPPPGIL | 0.756 ± 0.046
69 | SLSIFLRDALGF | 0.74 ± 0.035

Row | Sequence | protein stability index
70 | SLSIHPCHFGPS | 0.671 ± 0.03
71 | SLSPGLPPVLLT | 0.666 ± 0.0067
72 | SLSPPLLPPSPP | 0.643 ± 0.018
73 | SLSPPPLSPSPP | 0.627 ± 0.022
74 | SLVCGFAVGGFW | 0.659 ± 0.044
75 | SLVPCFLSFLYP | 0.5752 ± 0.0017
76 | SLVSGPRPPSAF | 0.737 ± 0.089
77 | SLVVSPRQLLPR | 0.704 ± 0.029
78 | SLWWRWQATIRR | 0.714 ± 0.13
79 | SLYERYGRFNSS | 0.656 ± 0.027
80 | SLYPRALDFGPM | 0.692 ± 0.033
81 | SLYYPRLVSSSL | 0.732 ± 0.11
82 | SMGGRVGDLACQ | 0.725 ± 0.042
83 | SMSPHKCSVCFC | 0.644 ± 0.045
84 | SMSPPLSLFPSF | 0.841 ± 0.096
85 | SMSSERYIKRGN | 0.702 ± 0.011
86 | SNFRDISLHAAG | 0.684 ± 0.042
87 | SNGVCVGGSESA | 0.674 ± 0.082
88 | SNIDIEAELNKT | 0.728 ± 0.031
89 | SNIEKKKTIKRK | 0.6929 ± 0.0069
90 | SNKGIKNIKKKT | 0.728 ± 0.0084
91 | SNQHKKKNQLRE | 0.693 ± 0.086
92 | SNRASVCKSGKR | 0.6768 ± 0.0017

Row | Sequence | protein stability index
93 | SNRLIKKKKKRI | 0.715 ± 0.036
94 | SNWLMTYIIRRK | 0.641 ± 0.012
95 | SPAAGGRVGVRR | 0.715 ± 0.021
96 | SPAPIRFLWTIP | 0.59 ± 0.028
97 | SPAPPLSRPPPH | 0.695 ± 0.0081
98 | SPASPPLPAPPP | 0.68 ± 0.032
99 | SPFLPLHRPRML | 0.653 ± 0.018
100 | SPFSPLPSPRPR | 0.723 ± 0.018
101 | SPGCPNRGAFEI | 0.871 ± 0.07
102 | SPHRQIRKRFEK | 0.714 ± 0.026
103 | SPITSLSGGTKR | 0.631 ± 0.064
104 | SPKGRVISRRQP | 0.602 ± 0.034
105 | SPLFLVIRLPST | 0.62 ± 0.055
106 | SPLLASPSHLSL | 0.71 ± 0.083
107 | SPLLSSPSPFSL | 0.751 ± 0.095
108 | SPLPPARSVPPP | 0.646 ± 0.067
109 | SPLPPPPPVPLP | 0.652 ± 0.082
110 | SPLPPSPSPPTP | 0.725 ± 0.22
111 | SPLRHIPPLHTP | 0.686 ± 0.1
112 | SPPAPPVSPPPP | 0.744 ± 0.042
113 | SPPAPSLPTFPP | 0.617 ± 0.096
114 | SPPARLLASLSP | 0.798 ± 0.2
115 | SPPCSPSALSHL | 0.728 ± 0.053

Row | Sequence | protein stability index
116 | SPPHAPPPVPSL | 0.751 ± 0.026
117 | SPPHPAALPSSP | 0.7005 ± 0.0032
118 | SPPILPRGLYSH | 0.637 ± 0.0097
119 | SPPLLPPPSLPP | 0.628 ± 0.0056
120 | SPPLPAPPPPIP | 0.60339 ± 3.2e-05
121 | SPPLPSAPPPPR | 0.664 ± 0.027
122 | SPPLQFLPYPFF | 0.685 ± 0.09
123 | SPPLRTFPVTLP | 0.644 ± 0.1
124 | SPPPALLPPLFP | 0.73 ± 0.064
125 | SPPPFLLPRLFS | 0.639 ± 0.096
126 | SPPPISPSLPPL | 0.728 ± 0.029
127 | SPPPNSLPPPPP | 0.7181 ± 0.0043
128 | SPPPPHPPPPAD | 0.651 ± 0.098
129 | SPPPPPLTHSPS | 0.627 ± 0.15
130 | SPPPPPPHPSHP | 0.692 ± 0.027
131 | SPPPPRLPSPTP | 0.744 ± 0.054
132 | SPPPPSPTCPHL | 0.652 ± 0.035
133 | SPPPPTSPRPLT | 0.709 ± 0.0085
134 | SPPPRATLPRPP | 0.689 ± 0.085
135 | SPPPRPLKLFPP | 0.599 ± 0.025
136 | SPPPSPSPPPPL | 0.739 ± 0.049
137 | SPPPSVCPRFPI | 0.761 ± 0.057
138 | SPPRPPSLPPPG | 0.67 ± 0.071

Row | Sequence | protein stability index
139 | SPPRSRPPPSLQ | 0.679 ± 0.015
140 | SPPSLLATVYFF | 0.7065 ± 0.0015
141 | SPPSPPPPPPPS | 0.691 ± 0.061
142 | SPQKCKSAPSSC | 0.6746 ± 0.0031
143 | SPRGPLVICHHP | 0.745 ± 0.075
144 | SPRHNALHFTLV | 0.644 ± 0.032
145 | SPRLLHPLPSFL | 0.7114 ± 0.0066
146 | SPRLPPPLFLPL | 0.638 ± 0.02
147 | SPRLQAFPGSRA | 0.713 ± 0.032
148 | SPRQARSFLTSS | 0.756 ± 0.026
149 | SPSGLPPPLTYP | 0.667 ± 0.034
150 | SPSLLLSFLSFF | 0.665 ± 0.071
151 | SPSLVVRVSFEF | 0.595 ± 0.025
152 | SPSPFRPAPSLH | 0.7048 ± 0.0061
153 | SPSPPPTPGSPP | 0.718 ± 0.15
154 | SPTLPLTRRHPR | 0.718 ± 0.035
155 | SPTNNTSTQSQT | 0.686 ± 0.012
156 | SPTPRLGGPPPI | 0.723 ± 0.015
157 | SPVFSDFLLSLC | 0.642 ± 0.028
158 | SPVFYYCPGYVD | 0.702 ± 0.05
159 | SPVSLLSFRLLL | 0.573 ± 0.022
160 | SPVTDRRKRRNN | 0.666 ± 0.012
